Consider one molecule from patent US20250340640A1.

The target in the assay is recombinant protein TCRVB 6-5 (human). As to the kind of experiment: SPR, compared with BJM0277. (In general: In SPR one partner is held on a chip, and binding of the other changes the refractive index at the surface.)
recombinant protein TCRVB 6-5 (human), sequence (TCR beta, as listed by the source): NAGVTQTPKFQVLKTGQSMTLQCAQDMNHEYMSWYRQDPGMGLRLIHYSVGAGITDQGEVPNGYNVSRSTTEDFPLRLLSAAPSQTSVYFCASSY

B1: A-H.45 (bispecific antibody, part only; not given: anti-CD19 arm, constant regions, linkers, not shown: another chain or arm of the molecule; a dimerising Fc or GST; small tags and cut ends)
scFv: QVQLVQSGAEVKKPGSSVKVSCKASGYSFTTYYIHWVRQAPGQGLEWMGWFSAGSGNTKYNEKFKGRVTITADTSTSTAYMELSSLRSEDTAVYYCAVSYYSYDVLDYWGQGTTVTVSSGGGGSGGGGSGGGGSGGGGSDIQMTQSPSFLSASVGDRVTITCKASQNVGINVVWHQQKPGKAPKALIYSSSHRYSGVPSRFSGSGSGTEFTLTISSLQPEDFATYFCQQFKSYPLTFGQGTKLEIK
On to B1, for which the fold greater affinity than BJM0277 came out at 35 fold.
